In US20220340635A1, “FUSION PROTEIN FOR TREATMENT OF METABOLIC DISEASE” (ZHEJIANG DOER BIOLOGICS CORPORATION, priority 2019, published 2022):
No end group written: not given here.

Columns and labels:
[1] = target: Recombinant DPP-IV enzyme (Homo sapiens, UniProt P27487); experiment: DPP-IV enzyme resistance (GCGR bioactivity after DPP-IV treatment); type: in vitro ADME; details: 5 μM protein, 10 nM recombinant DPP-IV, 37° C., 24 hours; GCGR bioactivity after/before treatment
Description: The purified fusion protein was dissolved in 10 mM of HEPES buffer (containing 0.05 mg/ml BSA) to a final concentration of 5 μM. Recombinant DPP-IV enzyme (final concentration of 10 nM) was added and incubated at 37° C. for 24 hours before detection of GCGR bioactivity. Activity retention rate=(activity after DPP-IV enzyme treatment/activity before DPP-IV enzyme treatment)×100%.

[2] = in vivo; cited from earlier work

Sequence of Recombinant DPP-IV enzyme (P27487 whole entry, species assumed, the tested form may be a part): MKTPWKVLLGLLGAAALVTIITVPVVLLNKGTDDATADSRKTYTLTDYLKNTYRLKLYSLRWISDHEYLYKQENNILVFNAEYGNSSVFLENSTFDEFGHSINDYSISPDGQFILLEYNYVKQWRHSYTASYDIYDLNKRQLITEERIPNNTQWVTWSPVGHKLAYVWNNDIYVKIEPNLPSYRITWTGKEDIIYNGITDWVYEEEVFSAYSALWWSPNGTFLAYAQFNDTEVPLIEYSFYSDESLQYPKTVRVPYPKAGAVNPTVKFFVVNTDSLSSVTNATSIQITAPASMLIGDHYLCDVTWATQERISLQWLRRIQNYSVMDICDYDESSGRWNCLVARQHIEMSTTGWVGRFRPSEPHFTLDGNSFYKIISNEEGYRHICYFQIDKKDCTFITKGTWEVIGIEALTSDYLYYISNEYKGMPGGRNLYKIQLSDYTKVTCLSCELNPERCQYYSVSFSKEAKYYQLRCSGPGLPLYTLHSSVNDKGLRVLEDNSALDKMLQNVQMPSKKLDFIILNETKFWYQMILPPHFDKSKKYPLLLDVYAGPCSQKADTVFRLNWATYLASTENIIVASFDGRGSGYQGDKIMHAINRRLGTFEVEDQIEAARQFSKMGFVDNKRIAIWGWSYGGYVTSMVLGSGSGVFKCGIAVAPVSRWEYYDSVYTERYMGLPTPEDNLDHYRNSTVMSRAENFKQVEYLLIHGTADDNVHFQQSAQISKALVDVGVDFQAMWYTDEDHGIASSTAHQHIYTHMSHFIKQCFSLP

Substance	Activity preservation rate (%) [1] [%]	Anti-drug antibody positive rate [2] [%]
H-D-Ser-QGTFTSDYSKYLDSQAAQDFVQWLMNGGPSSGAPPPS (not fully specified (N-terminus)) [GDSerGS, control]	99.2	–
Taspoglutide	–	49
